Patent US20030032072A1, “Method for the assessment of allergenicity” (Novozymes A/S, priority 1999, published 2003)

How the values were obtained:
[1] = test system: Human lung epithelial cells (BEAS-2B, ATCC # CRL-9609); assay: Bioassay: extracellular cytokine expression of epithelial cells, assessed by ELISA; type: cell-based
Procedure: Human lung epithelial cells (BEAS-2B, ATCC # CRL-9609) were inoculated in a culture flask (NUNC), precoated with 2% (vol/vol) Ultroser G in water, at 1500 to 3000 cells per cm^2, and were grown at 37° C. in LHC-9 medium containing 2% (vol/vol) Ultroser G and 5% CO2.
The cells were subcultured before reaching confluence. The medium was removed, and fresh 0.5% polyvinylpyrrolidone (PVP) in trypin (0.25% (wt/vol))-EDTA (0.03% (wt/vol)) solution was added until cells detached (usually after 5-10 minutes at room temperature). LHC-9 medium was added, and cells were collected by centrifugation (300× g for 15 minutes), and resuspended in LHC-9 medium containing 2% (vol/vol) Ultroser G. Finally, cells were dispensed into precoated flasks (NUNC) at a density of 1500 to 3000 cells per cm^2.
When enough cells were available to perform the planned number of assays, cells were trypinated, and were transferred to a 24-well culture plate (NUNC) (1×10^5 cells per well). Incubation was for 24 hours at 37° C. in LHC-9 medium containing 2% (vol/vol) Ultroser G and 5% CO2. […]
The extracellular expression of selected cytokines was assessed by ELISA (R&D Systems), as a function of incubation time and protein concentration. […] A calibration curve was included each time, to include quantification of the detected cytokine levels, as well as to assess assay reproducibility.

Brown Norway rats = assay: Intratracheal immunization of Brown Norway rats, IgE ELISA; type: in vivo, rat; conditions: rats immunized intratracheally, IgE detected by ELISA, Example 5
Procedure: Twenty intratracheal immunizations were performed weekly with 100 microliters 0.9% (wt/vol) NaCl (control group), or 100 microliters of the protein dilution mentioned before. Each group contained 10 rats. Blood samples (2 ml) were collected from the eye one week after every second immunization. Serum was obtained by blood clothing, and centrifugation.
The IgE ELISA was performed by using the following: Buffers and Solutions:
Mouse anti-Rat IgE was diluted 200×in PBS (5 micrograms/ml). 100 microliters were added to each well. The plates were coated overnight at 4° C.
Unspecific adsorption was blocked by incubating each well for 1 hour at room temperature with 200 microliters blocking buffer. The plates were washed 3×with 300 microliters washing buffer.
Unknown rat sera and a known rat IgE solution were diluted in dilution buffer: Typically 10×, 20×and 40×for the unknown sera, and ½ dilutions for the standard IgE starting from 1 microgram/ml. 100 microliters were added to each well. […]
The reaction was stopped by adding 100 microliters H2SO4. The plates were read at 492 nm with 620 nm as reference.
Rats were immunized intratracheally with unmodified and modified protease, and the protease specific IgE levels were detected by ELISA. The IgE levels detected throughout the study were integrated, and compared relative to the levels observed in rats immunized with unmodified enzyme.

Row | Molecule | effect on cytokine production ([1]; PMSF (10 mM) and its hydrolysis products, diluted about 1000× before being applied on the cells) | IgE level in rats (Brown Norway rats) | level of all cytokines (normalized cytokine levels, FIG. 5) ([1]; epithelial cell assay, Example 5)
1 | O=S(=O)(F)Cc1ccccc1 [PMSF, reference compound] | no detectable effect |  | 
2 | lipase: triacylglycerol acylhydrolase (lipase) E.C. 3.1.1.3 from Humicola lanuginosa (protein, UniProt O59952 23-291, looked up) Lipase: EVSQDLFNQFNLFAQYSAAAYCGKNNDAPAGTNITCTGNACPEVEKADATFLYSFEDSGVGDVTGFLALDNTNKLIVLSFRGSRSIENWIGNLNFDLKEINDICSGCRGHDGFTSSWRSVADTLRQKVEDAVREHPDYRVVFTGHSLGGALATVAGADLRGNGYDIDVFSYGAPRVGNRAFAEFLTVQTGGTLYRITHTNDIVPRLPPREFGYSHSSPEYWIKSGTLVPVTRNDIVKIEGIDATGGNNQPNIPDIPAHLWYFGLIGTCL |  | significantly lower IgE level | high level
